In US20040115786A1 (priority 2001, published 2004):

Experiment: Stability of purified ArsR protein to freeze thaw
Assay type: physicochemical
Settings: post-dialysis, 0.48 mg/ml in 50 mM Hepes pH 8.5, 200 mM NaCl, 15 mM DTT, 5% glycerol
Method: Dialysis was performed next. Glycerol was added to bring the pool to a concentration of 5% glycerol by volume. The pool was then diluted to approximately 1 mg/ml with the dialysis buffer listed below. The faction pool was dialyzed in 3500 Molecular Weight Cutoff tubing placed in 1 liter consisting of 50 mM Hepes, pH 8.5, 200 mM NaCl, 1 mM EDTA, 15 mM DTT, and 5% glycerol for five hours. The dialysis tubing was then placed in 4 liters of 50 mM Hepes, pH 8.5, 200 mM NaCl, 15 mM DTT, and 5% glycerol overnight to remove any EDTA. The pool was then clarified by centrifugation, the protein concentration was determined, and a SDS-PAGE was run of the results.
The final product of a pilot production (5 g whole cell pellet from 34 g total) yielded a protein concentration of 480 μg/ml (in a 0.05% polysorbate solution for stabilization of the protein and reduction of non-specific binding to the sensor surface). The total volume for this experiment was 3.6 ml, which yielded a total protein yield of 1.75 mg. This was dissolved in a buffer of 50 mM Hepes, pH 8.5, 200 mM NaCl, 15 mM DTT, and 5% Glycerol. Purity was greater than 95% by SDS PAGE. In this system, induction was tightly regulated and successful, with 30-40% of protein production in soluble fraction. The initial yield from IMAC for dialysis was 5 mg at 1.0 mg/ml., with visible precipitation post dialysis.

B1: ArsR: E. coli arsenic-binding, DNA-binding ars operon repressor protein, SEQ ID NO:2, expressed from codon-optimized synthetic gene (protein)
chain: MLQLTPLQLFKNLSDETRLGIVLLLREMGELCVCDLCMALDQSQPKISRHLAMLRESGILLDRKQGKWVHYRLSPHIPSWAAQIIEQAWLSQQDDVQVIARKLASVNCSGSSKAVCI
With B1 the “stability to freeze thaw cycles” value was “stable to multiple freeze thaw cycles”.
